We go through one molecule from article PMC4372590, “Autonomously Folding Protein Fragments Reveal Differences in the Energy Landscapes of Homologous RNases H” (PLoS ONE, 2015).

The test deals with T1, T. thermophilus RNase H I_(core) fragment (T. thermophilus).
T1 chain: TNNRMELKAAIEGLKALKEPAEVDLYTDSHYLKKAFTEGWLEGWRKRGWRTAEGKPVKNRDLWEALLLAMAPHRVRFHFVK
In words: AUC; equilibrium analytical ultracentrifugation (Beckman XL-I); 25, 50 and 100 uM samples; 24,500, 30,000 and 37,000 rpm; absorbance at 250 nm; global fit to a monomer-dimer equilibrium (dimer to monomers); room temperature, 20 mM sodium acetate pH 5.5, 50 mM potassium chloride. The conditions noted are these: both partners purified.

B1: T. thermophilus RNase H I_(core) fragment (domain or fragment)
chain: TNNRMELKAAIEGLKALKEPAEVDLYTDSHYLKKAFTEGWLEGWRKRGWRTAEGKPVKNRDLWEALLLAMAPHRVRFHFVK
modifications: Printed limits 43-122 use E. coli alignment numbering. The offset is +4 at the N-terminal end (R4=R8, W22=W26, D66=D70) and +5 after the one-residue insertion near 80, so 122=K127. The paper says …
On to B1, for which the Kd was roughly 150 µM and the “stoichiometry N” value was determined as 2.

A word on the Kd: it is the free concentration of one partner at which half of the binding sites on the other are occupied at equilibrium, for simple one-to-one binding. Read a low Kd as a tighter complex. One may read the stoichiometry N as the number of molecules, sites or subunits per partner or assembly.
